Assay results taken from PMC10889306, “ApoE Isoforms Inhibit Amyloid Aggregation of Proinflammatory Protein S100A9” (International Journal of Molecular Sciences, 2024).
Where “and” joins values, the source holds several entries; their conditions need not be identical. Equal entries are not always repeated.

Key:
[1] = target: T1, ApoE3 (lipid-free) (human, UniProt P02649 19-317); assay: cross-linking; native proteins, 4 uM S100A9 and 4 uM ApoE isoform (1:1), preincubated at 4 C overnight; glutaraldehyde at 10- and 100-fold molar excess, 30 min at 4 C, quenched with Tris; SDS-PAGE and Western blot with anti-S100A9 polyclonal antibodies; conditions: both partners purified
T1 construct: Apolipoprotein E, isoform ApoE3 (Cys112/Arg158), human; printed as a 299-residue lipoprotein; the methods call the ApoE isoforms full-length; PDB 2L7B (NMR structure of full-length ApoE3) was used for the modelling only; also called Apolipoprotein E3; lipid-free ApoE3; source: bought: AlexoTech AB (recombinant), then size-exclusion chromatography (Superdex 200)

[2] = target: T2, ApoE4 (lipid-free) (human, UniProt P02649 19-317, Cys112 to Arg112); assay: as above; conditions: both partners purified
T2 construct: Apolipoprotein E, isoform ApoE4 (Arg112/Arg158), human; printed as a 299-residue lipoprotein; the methods call the ApoE isoforms full-length; Natural allele APOE e4; differs from ApoE3 only at position 112; also called Apolipoprotein E4; lipid-free ApoE4; source: bought: AlexoTech AB (recombinant), then size-exclusion chromatography (Superdex 200)

[3] = target: the molecule itself; assay: SDS-stable complex by Western blot of pellet and SEC fractions; 100 uM S100A9 with 5 uM lipid-free ApoE4, PBS, 42 C, 70 h (methods: 72 h); centrifuged 14,000 rpm 15 min; pellet and Superdex 200 peaks of the supernatant on SDS-PAGE and Western blot with anti-S100A9 polyclonal antibodies (Santa Cruz)
[4] = target: T1, ApoE3 (lipid-free); assay: SDS-stable complex by SDS-PAGE and Western blot; 50 uM S100A9 with 2 uM lipid-free or lipidated ApoE isoform, PBS, 42 C, 70 h, non-stirring; reducing Laemmli buffer, 4-20% gel; Coomassie and Western blot with anti-S100A9 polyclonal antibody (Invitrogen); conditions: both partners purified
[5] = target: the molecule itself; assay: as above
[6] = target: T3, ApoE4-DOPC (lipidated ApoE4) (human, UniProt P02649 19-317, Cys112 to Arg112); assay: as above; conditions: both partners purified
T3 construct: Apolipoprotein E, isoform ApoE4 (Arg112/Arg158), human; printed as a 299-residue lipoprotein; 'Lipidated full-length ApoE isoforms'; source: bought: AlexoTech AB (recombinant)

[7] = target: T4, ApoE3-DOPC (lipidated ApoE3) (human, UniProt P02649 19-317); assay: as above; conditions: both partners purified
T4 construct: Apolipoprotein E, isoform ApoE3 (Cys112/Arg158), human; printed as a 299-residue lipoprotein; 'Lipidated full-length ApoE isoforms'; also called DOPC-ApoE3; source: bought: AlexoTech AB (recombinant)
T4 sequence (P02649 19-317): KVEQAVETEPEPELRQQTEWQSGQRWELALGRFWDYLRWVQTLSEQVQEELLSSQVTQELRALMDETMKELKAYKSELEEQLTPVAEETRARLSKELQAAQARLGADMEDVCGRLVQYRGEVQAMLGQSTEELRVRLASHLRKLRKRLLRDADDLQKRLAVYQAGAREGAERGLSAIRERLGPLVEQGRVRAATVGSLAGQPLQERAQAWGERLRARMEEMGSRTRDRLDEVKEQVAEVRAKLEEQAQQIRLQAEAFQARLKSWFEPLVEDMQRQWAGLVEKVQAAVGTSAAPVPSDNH

T2 sequence (P02649 other isoform, or with tags, fused parts or gaps Cys112 to Arg112 | Cys112 to Arg112): as the sequence (P02649 19-317) above, with C112R counted along it
T1 sequence (P02649 19-317): as the sequence (P02649 19-317) above
T3 sequence (P02649 other isoform, or with tags, fused parts or gaps Cys112 to Arg112 | Cys112 to Arg112): as the sequence (P02649 19-317) above, with C112R counted along it

stoichiometry N [1]: 2 S100A9 per ApoE
stoichiometry N [2]: 1 S100A9 per ApoE and 2 S100A9 per ApoE
stoichiometry N [4]: 1 S100A9 per ApoE
stoichiometry N [6]: 1 S100A9 per ApoE
stoichiometry N [7]: 1 S100A9 per ApoE
B1: S100A9 (natural protein)
chain: KMSQLERNIETIINTFHQYSVKLGHPDTLNQGEFKELVRKDLQNFLKKENKNEKVIEHIMEDLDTNADKQLSFEEFIMLMARLTWASHEKMHEGDEGPGHHHKPGLGEGTP
notes: 13 kDa monomer on the gels; PDB 5I8N (S100A9 dimer, NMR) was used for the modelling only; also called native S100A9; S100A9 amyloids; source: Escherichia coli, purified as described previously [57]; Superdex 200 gel filtration for the cross-linking
stoichiometry N [3]: 2
stoichiometry N [5]: 3
